Reference: patent publication US20200199241A1 (Chugai, published 2020)
Numbering of substitutions follows the chain as printed. In names and notes the source's numbering stands.

T1: human FcγRIIa(R) (human, UniProt P12318 36-217)
T1 construct: also called FcgRIIaR; FcγRIIa type R
T1 chain: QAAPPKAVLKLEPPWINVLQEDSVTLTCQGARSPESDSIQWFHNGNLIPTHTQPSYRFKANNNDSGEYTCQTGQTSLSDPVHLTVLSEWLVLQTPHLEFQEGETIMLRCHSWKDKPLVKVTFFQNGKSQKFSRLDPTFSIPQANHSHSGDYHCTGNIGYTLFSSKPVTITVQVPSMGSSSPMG

T2: human FcγRIIa(H) (human, UniProt P12318 36-217)
T2 construct: also called FcgRIIaH; FcγRIIa type H
T2 sequence: T1 chain with R133H

T3: human FcγRIIb (human, UniProt P31994 43-217, limits assumed)
T3 construct: also called FcgRIIb
T3 sequence: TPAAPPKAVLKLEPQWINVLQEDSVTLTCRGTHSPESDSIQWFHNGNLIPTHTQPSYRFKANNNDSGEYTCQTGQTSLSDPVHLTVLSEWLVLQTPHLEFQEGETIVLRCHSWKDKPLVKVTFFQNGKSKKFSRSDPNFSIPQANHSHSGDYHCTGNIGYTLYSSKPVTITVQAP

B1: GpH7-B3 variant G236Q/GpL16-k0 (antibody, human IgG1)
heavy: not shown
light: DIVMTQSPLSLPVTPGEPASISCQASESLVHSNRNTYLHWYLQKPGQSPQLLIYKVSNRFSGVPDRFSGSGSGTDFTLKISRVEAEDVGVYYCSQNTHVPPTFGQGTKVEIE
notes: copies: 2 + 2
B2: GpH7-B3 variant G236R/GpL16-k0 (antibody, human IgG1)
heavy: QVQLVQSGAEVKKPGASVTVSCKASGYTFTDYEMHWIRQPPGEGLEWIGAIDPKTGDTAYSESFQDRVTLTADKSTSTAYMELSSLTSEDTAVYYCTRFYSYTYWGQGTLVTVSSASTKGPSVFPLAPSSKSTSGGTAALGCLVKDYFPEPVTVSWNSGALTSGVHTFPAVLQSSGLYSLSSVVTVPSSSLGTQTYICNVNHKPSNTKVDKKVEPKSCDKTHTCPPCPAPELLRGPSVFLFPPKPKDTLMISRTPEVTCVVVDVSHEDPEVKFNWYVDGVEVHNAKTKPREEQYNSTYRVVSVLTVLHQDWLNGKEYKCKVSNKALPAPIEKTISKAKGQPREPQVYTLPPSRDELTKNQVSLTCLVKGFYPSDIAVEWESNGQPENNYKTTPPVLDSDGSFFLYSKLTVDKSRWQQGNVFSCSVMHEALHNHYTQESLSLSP
light: B1 light
notes: copies: 2 + 2
B3: GpH7-B3 variant G236Y/GpL16-k0 (antibody, human IgG1)
heavy: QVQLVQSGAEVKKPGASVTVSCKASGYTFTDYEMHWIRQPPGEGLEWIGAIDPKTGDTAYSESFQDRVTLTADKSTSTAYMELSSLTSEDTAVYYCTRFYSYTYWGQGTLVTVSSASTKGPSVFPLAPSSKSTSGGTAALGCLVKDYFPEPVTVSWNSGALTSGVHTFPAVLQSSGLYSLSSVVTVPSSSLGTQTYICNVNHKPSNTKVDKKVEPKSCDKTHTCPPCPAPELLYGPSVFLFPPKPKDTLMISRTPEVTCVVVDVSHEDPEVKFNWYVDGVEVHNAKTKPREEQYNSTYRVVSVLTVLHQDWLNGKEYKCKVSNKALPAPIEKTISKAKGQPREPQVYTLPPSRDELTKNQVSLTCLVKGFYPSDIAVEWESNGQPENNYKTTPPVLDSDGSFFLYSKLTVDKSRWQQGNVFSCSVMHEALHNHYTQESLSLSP
light: B1 light
notes: copies: 2 + 2
B4: GpH7-B3 variant G237D/GpL16-k0 (antibody, human IgG1)
heavy: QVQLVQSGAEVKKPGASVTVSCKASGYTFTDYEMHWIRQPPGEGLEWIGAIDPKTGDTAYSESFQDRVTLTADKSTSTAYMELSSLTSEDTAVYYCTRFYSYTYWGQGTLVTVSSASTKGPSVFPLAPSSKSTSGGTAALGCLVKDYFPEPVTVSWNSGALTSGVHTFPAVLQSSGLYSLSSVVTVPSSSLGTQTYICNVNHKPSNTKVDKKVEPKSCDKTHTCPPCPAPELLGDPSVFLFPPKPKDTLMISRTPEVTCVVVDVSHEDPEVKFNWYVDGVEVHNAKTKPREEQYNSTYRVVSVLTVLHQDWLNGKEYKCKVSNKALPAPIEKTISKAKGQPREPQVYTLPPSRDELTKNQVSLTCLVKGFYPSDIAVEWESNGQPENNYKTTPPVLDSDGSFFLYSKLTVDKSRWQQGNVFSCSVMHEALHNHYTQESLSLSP
light: B1 light
notes: copies: 2 + 2
B5: GpH7-B3 variant G237E/GpL16-k0 (antibody, human IgG1)
heavy: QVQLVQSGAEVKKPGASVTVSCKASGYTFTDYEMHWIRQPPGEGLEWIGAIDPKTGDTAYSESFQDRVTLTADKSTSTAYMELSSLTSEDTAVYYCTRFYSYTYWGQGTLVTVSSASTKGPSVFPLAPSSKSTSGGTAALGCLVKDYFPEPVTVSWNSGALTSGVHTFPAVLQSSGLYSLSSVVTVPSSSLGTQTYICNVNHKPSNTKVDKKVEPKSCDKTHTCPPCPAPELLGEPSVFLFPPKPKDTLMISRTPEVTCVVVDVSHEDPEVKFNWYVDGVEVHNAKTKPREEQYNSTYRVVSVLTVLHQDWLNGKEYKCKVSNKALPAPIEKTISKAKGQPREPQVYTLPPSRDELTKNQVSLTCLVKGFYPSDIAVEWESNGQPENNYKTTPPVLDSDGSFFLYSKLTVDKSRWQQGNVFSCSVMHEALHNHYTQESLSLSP
light: B1 light
notes: copies: 2 + 2
B6: GpH7-B3 variant G237H/GpL16-k0 (antibody, human IgG1)
heavy: not shown
light: B1 light
notes: copies: 2 + 2
B7: GpH7-B3 variant G237I/GpL16-k0 (antibody, human IgG1)
heavy: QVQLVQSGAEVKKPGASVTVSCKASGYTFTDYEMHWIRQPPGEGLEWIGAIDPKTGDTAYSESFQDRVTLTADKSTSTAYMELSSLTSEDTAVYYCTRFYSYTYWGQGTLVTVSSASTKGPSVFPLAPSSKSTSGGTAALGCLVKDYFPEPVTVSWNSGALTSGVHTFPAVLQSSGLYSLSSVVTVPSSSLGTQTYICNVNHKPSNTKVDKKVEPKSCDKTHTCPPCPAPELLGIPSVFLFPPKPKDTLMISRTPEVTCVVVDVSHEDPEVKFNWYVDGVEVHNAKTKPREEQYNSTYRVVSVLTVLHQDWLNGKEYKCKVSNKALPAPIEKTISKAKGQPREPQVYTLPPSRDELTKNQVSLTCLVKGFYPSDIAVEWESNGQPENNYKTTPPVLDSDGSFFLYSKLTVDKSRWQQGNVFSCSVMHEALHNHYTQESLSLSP
light: B1 light
notes: copies: 2 + 2
B8: GpH7-B3 variant G237L/GpL16-k0 (antibody, human IgG1)
heavy: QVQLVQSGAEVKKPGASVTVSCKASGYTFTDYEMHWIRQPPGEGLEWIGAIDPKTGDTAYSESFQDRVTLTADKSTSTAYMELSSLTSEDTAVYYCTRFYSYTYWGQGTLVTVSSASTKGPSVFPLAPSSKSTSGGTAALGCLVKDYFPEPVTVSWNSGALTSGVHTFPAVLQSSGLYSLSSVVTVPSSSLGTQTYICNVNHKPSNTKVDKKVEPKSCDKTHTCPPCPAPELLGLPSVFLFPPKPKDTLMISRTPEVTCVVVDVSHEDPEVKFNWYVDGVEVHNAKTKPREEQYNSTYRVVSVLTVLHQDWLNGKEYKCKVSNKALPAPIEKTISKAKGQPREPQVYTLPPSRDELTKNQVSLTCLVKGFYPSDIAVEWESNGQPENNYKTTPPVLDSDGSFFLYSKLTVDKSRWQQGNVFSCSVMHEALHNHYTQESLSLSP
light: B1 light
notes: copies: 2 + 2
B9: GpH7-B3 variant G237M/GpL16-k0 (antibody, human IgG1)
heavy: not shown
light: B1 light
notes: copies: 2 + 2
B10: GpH7-B3 variant G237N/GpL16-k0 (antibody, human IgG1)
heavy: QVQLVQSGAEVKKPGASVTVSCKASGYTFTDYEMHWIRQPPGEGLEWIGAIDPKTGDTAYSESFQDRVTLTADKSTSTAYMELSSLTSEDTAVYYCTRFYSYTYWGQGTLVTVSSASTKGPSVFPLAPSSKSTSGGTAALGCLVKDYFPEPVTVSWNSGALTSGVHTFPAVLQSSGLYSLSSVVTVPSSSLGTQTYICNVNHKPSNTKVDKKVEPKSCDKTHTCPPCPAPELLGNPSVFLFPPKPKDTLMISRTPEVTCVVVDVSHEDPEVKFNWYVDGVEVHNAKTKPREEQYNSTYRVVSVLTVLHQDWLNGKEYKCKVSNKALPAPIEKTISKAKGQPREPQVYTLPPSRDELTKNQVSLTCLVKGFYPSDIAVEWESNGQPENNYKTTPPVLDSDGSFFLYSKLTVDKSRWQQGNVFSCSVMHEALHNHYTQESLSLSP
light: B1 light
notes: copies: 2 + 2
B11: GpH7-B3 variant G237Q/GpL16-k0 (antibody, human IgG1)
heavy: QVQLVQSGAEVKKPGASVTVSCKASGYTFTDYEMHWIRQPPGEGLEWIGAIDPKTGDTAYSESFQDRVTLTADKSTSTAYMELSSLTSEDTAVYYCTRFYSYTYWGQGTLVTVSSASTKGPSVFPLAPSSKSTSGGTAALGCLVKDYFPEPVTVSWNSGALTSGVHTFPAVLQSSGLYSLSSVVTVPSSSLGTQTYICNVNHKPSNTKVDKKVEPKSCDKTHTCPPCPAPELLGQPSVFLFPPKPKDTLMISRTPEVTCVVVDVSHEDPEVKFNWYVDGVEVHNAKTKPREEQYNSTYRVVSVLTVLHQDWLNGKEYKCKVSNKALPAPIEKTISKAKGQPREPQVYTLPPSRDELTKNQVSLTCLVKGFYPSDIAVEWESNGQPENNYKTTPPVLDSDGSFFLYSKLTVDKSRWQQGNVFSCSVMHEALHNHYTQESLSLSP
light: B1 light
notes: copies: 2 + 2
B12: GpH7-B3 variant G237R/GpL16-k0 (antibody, human IgG1)
heavy: not shown
light: B1 light
notes: copies: 2 + 2
B13: GpH7-B3 variant G237S/GpL16-k0 (antibody, human IgG1)
heavy: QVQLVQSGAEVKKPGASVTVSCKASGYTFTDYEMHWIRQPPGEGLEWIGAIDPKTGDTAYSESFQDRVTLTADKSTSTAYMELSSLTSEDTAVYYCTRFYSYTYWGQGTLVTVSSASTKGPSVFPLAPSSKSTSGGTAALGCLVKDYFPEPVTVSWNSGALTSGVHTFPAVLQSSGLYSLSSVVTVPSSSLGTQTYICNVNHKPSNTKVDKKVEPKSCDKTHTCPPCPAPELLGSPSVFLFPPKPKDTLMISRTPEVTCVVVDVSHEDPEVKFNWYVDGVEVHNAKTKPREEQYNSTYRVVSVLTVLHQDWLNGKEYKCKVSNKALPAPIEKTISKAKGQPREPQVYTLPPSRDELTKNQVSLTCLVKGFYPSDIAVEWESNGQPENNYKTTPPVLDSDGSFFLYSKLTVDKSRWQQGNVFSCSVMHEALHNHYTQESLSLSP
light: B1 light
notes: copies: 2 + 2
B14: GpH7-B3 variant G237T/GpL16-k0 (antibody, human IgG1)
heavy: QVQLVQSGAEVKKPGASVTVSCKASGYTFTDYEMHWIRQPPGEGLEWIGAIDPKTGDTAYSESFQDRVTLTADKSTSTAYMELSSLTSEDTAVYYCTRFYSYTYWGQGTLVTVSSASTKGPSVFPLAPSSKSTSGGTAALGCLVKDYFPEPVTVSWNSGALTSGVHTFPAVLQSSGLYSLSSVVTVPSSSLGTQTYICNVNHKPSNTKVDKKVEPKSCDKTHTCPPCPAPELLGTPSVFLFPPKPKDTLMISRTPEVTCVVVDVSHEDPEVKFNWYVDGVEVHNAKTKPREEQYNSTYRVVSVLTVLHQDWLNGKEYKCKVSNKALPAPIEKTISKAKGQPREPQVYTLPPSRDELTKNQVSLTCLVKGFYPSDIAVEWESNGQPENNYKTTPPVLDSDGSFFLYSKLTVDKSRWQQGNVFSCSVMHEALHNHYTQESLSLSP
light: B1 light
notes: copies: 2 + 2

Target: T1, human FcγRIIa(R)
Experiment: SPR (Biacore);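 note: antibody variants captured on sensor chip, Fcγ receptor flowed over at 25 °C, bound receptor normalized to amount of captured antibody, expressed relative to reference antibody set as 100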
With B1 the relative binding activity was 38 % of GpH7-B3/GpL16-k0.
B2 was tested, and the relative binding activity was 0 % of GpH7-B3/GpL16-k0.
For B3, the relative binding activity was 22 % of GpH7-B3/GpL16-k0.
In the case of B4, the relative binding activity is reported as 74 % of GpH7-B3/GpL16-k0.
In the case of B5, the relative binding activity is reported as 23 % of GpH7-B3/GpL16-k0.
B6 was tested, and the relative binding activity was 14 % of GpH7-B3/GpL16-k0.
With B7 the relative binding activity was 69 % of GpH7-B3/GpL16-k0.
B8 was tested, and the relative binding activity was 58 % of GpH7-B3/GpL16-k0.
In the case of B9, the relative binding activity is reported as 56 % of GpH7-B3/GpL16-k0.
For B10, the relative binding activity was 75 % of GpH7-B3/GpL16-k0.
B11 was tested, and the relative binding activity was 15 % of GpH7-B3/GpL16-k0.
In the case of B12, the relative binding activity is reported as 0 % of GpH7-B3/GpL16-k0.
With B13 the relative binding activity was 45 % of GpH7-B3/GpL16-k0.
In the case of B14, the relative binding activity is reported as 13 % of GpH7-B3/GpL16-k0.

The binders below were run against T2, human FcγRIIa(H) (assay: SPR (Biacore);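 note: antibody variants captured on sensor chip, Fcγ receptor flowed over at 25 °C, bound receptor normalized to amount of captured antibody, expressed relative to reference antibody set as 100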).
With B1 the relative binding activity was 80 % of GpH7-B3/GpL16-k0.
With B2 the relative binding activity was 3 % of GpH7-B3/GpL16-k0.
In the case of B3, the relative binding activity is reported as 86 % of GpH7-B3/GpL16-k0.
In the case of B4, the relative binding activity is reported as 0 % of GpH7-B3/GpL16-k0.
With B5 the relative binding activity was 1 % of GpH7-B3/GpL16-k0.
With B6 the relative binding activity was 1 % of GpH7-B3/GpL16-k0.
For B7, the relative binding activity was 6 % of GpH7-B3/GpL16-k0.
B8 was tested, and the relative binding activity was 1 % of GpH7-B3/GpL16-k0.
In the case of B9, the relative binding activity is reported as 1 % of GpH7-B3/GpL16-k0.
With B10 the relative binding activity was 0 % of GpH7-B3/GpL16-k0.
With B11 the relative binding activity was 0 % of GpH7-B3/GpL16-k0.
B12 was tested, and the relative binding activity was -1 % of GpH7-B3/GpL16-k0.
With B13 the relative binding activity was 3 % of GpH7-B3/GpL16-k0.
In the case of B14, the relative binding activity is reported as 2 % of GpH7-B3/GpL16-k0.

The binders below were run against T4, human FcγRIa (human, UniProt P12314 16-292, limits assumed) (assay: SPR (Biacore);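 note: antibody variants captured on sensor chip, Fcγ receptor flowed over at 25 °C, bound receptor normalized to amount of captured antibody, expressed relative to reference antibody set as 100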).
T4 construct: also called FcgRIa; FcγRI (CD64)
T4 sequence (P12314 16-292 limits assumed): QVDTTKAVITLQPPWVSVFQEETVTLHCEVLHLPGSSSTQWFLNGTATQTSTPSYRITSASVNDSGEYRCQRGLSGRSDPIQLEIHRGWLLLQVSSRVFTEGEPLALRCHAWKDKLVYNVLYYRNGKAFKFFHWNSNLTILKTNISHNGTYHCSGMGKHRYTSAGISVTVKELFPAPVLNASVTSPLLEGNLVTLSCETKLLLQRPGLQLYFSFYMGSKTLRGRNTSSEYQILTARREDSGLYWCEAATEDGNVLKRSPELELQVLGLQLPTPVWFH
B1 was tested, and the relative binding activity was 45 % of GpH7-B3/GpL16-k0.
B2 was tested, and the relative binding activity was 6 % of GpH7-B3/GpL16-k0.
B3 was tested, and the relative binding activity was 76 % of GpH7-B3/GpL16-k0.
B4 was tested, and the relative binding activity was 26 % of GpH7-B3/GpL16-k0.
B5 was tested, and the relative binding activity was 18 % of GpH7-B3/GpL16-k0.
With B6 the relative binding activity was 12 % of GpH7-B3/GpL16-k0.
B7 was tested, and the relative binding activity was 6 % of GpH7-B3/GpL16-k0.
In the case of B8, the relative binding activity is reported as 7 % of GpH7-B3/GpL16-k0.
In the case of B9, the relative binding activity is reported as 14 % of GpH7-B3/GpL16-k0.
For B10, the relative binding activity was 15 % of GpH7-B3/GpL16-k0.
With B11 the relative binding activity was 14 % of GpH7-B3/GpL16-k0.
For B12, the relative binding activity was 3 % of GpH7-B3/GpL16-k0.
With B13 the relative binding activity was 50 % of GpH7-B3/GpL16-k0.
With B14 the relative binding activity was 27 % of GpH7-B3/GpL16-k0.

Each binder was assayed against T5, human FcγRIIIa(F) (human, UniProt P08637 17-208, limits assumed) (assay: SPR (Biacore);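 note: antibody variants captured on sensor chip, Fcγ receptor flowed over at 25 °C, bound receptor normalized to amount of captured antibody, expressed relative to reference antibody set as 100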).
T5 construct: also called FcgRIIIaF; allotype F158
T5 sequence (P08637 other isoform, or with tags, fused parts or gaps limits assumed): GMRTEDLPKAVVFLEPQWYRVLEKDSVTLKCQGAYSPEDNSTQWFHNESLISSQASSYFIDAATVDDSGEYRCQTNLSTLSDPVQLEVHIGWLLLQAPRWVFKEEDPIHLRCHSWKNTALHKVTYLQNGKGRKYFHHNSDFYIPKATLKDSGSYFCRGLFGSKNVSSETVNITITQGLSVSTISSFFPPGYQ
For B1, the relative binding activity was 8 % of GpH7-B3/GpL16-k0.
With B2 the relative binding activity was -1 % of GpH7-B3/GpL16-k0.
In the case of B3, the relative binding activity is reported as 39 % of GpH7-B3/GpL16-k0.
In the case of B4, the relative binding activity is reported as 0 % of GpH7-B3/GpL16-k0.
B5 was tested, and the relative binding activity was 0 % of GpH7-B3/GpL16-k0.
With B6 the relative binding activity was 0 % of GpH7-B3/GpL16-k0.
For B7, the relative binding activity was 2 % of GpH7-B3/GpL16-k0.
In the case of B8, the relative binding activity is reported as 0 % of GpH7-B3/GpL16-k0.
B9 was tested, and the relative binding activity was 0 % of GpH7-B3/GpL16-k0.
B10 was tested, and the relative binding activity was 0 % of GpH7-B3/GpL16-k0.
In the case of B11, the relative binding activity is reported as 0 % of GpH7-B3/GpL16-k0.
For B12, the relative binding activity was 0 % of GpH7-B3/GpL16-k0.
With B13 the relative binding activity was 1 % of GpH7-B3/GpL16-k0.
B14 was tested, and the relative binding activity was 2 % of GpH7-B3/GpL16-k0.

What follows are binders tested against T3, human FcγRIIb (assay: SPR (Biacore)).
In the case of B1, the relative binding activity is reported as 19 % of GpH7-B3/GpL16-k0.
In the case of B2, the relative binding activity is reported as 0 % of GpH7-B3/GpL16-k0.
In the case of B3, the relative binding activity is reported as 16 % of GpH7-B3/GpL16-k0.
B4 was tested, and the relative binding activity was 95 % of GpH7-B3/GpL16-k0.
For B5, the relative binding activity was 18 % of GpH7-B3/GpL16-k0.
B6 was tested, and the relative binding activity was 11 % of GpH7-B3/GpL16-k0.
In the case of B7, the relative binding activity is reported as 29 % of GpH7-B3/GpL16-k0.
B8 was tested, and the relative binding activity was 51 % of GpH7-B3/GpL16-k0.
With B9 the relative binding activity was 36 % of GpH7-B3/GpL16-k0.
B10 was tested, and the relative binding activity was 65 % of GpH7-B3/GpL16-k0.
With B11 the relative binding activity was 5 % of GpH7-B3/GpL16-k0.
For B12, the relative binding activity was -1 % of GpH7-B3/GpL16-k0.
In the case of B13, the relative binding activity is reported as 26 % of GpH7-B3/GpL16-k0.
For B14, the relative binding activity was 7 % of GpH7-B3/GpL16-k0.
